Each block holds one molecule with its values, some of them ahead of it.
Legend:
[1] = molecular target: eIF4G-eIF4E complex (Saccharomyces cerevisiae) (UniProt P39935); conditions: cited from earlier work
eIF4A (S. cerevisiae) [2] = molecular target: T1, eIF4A (S. cerevisiae) (UniProt P10081); assay: global fit of RNA unwinding time courses to a thermodynamic model; K1/2 of a binding step calculated with the model of Figure 4A; RNA bound to the target before the step, ATP bound to Ded1p
T1 sequence: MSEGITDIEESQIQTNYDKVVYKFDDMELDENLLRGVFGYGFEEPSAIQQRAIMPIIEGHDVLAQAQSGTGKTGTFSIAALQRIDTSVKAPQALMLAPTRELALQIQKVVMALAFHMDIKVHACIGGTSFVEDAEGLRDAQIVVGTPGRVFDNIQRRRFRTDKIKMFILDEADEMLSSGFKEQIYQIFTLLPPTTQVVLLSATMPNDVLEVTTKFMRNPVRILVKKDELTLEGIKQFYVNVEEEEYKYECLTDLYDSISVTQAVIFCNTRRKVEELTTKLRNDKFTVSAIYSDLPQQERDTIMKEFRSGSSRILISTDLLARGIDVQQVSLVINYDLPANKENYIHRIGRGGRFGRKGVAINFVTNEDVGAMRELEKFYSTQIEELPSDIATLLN

eIF4A (S. cerevisiae) [3] = molecular target: T1, eIF4A (S. cerevisiae); assay: global fit of RNA unwinding time courses to a thermodynamic model; K1/2 of a binding step calculated with the model of Figure 4A (Kintek Global Explorer; 16 bp duplex, 25 nt 3' overhang); step without RNA and without ATP
eIF4A (S. cerevisiae) [4] = molecular target: T1, eIF4A (S. cerevisiae); assay: global fit of RNA unwinding time courses to a thermodynamic model; K1/2 of a binding step calculated with the model of Figure 4A; RNA bound to the binder before the step, no ATP
eIF4A (S. cerevisiae) [5] = molecular target: T1, eIF4A (S. cerevisiae); assay: global fit of RNA unwinding time courses to a thermodynamic model; K1/2 of a binding step calculated with the model of Figure 4A; step without RNA, ATP bound to Ded1p
eIF4A (S. cerevisiae) [6] = molecular target: T1, eIF4A (S. cerevisiae); assay: global fit of RNA unwinding time courses to a thermodynamic model; K1/2 of a binding step calculated with the model of Figure 4A; RNA bound to the target before the step, ATP bound to eIF4A
eIF4A (S. cerevisiae) [7] = molecular target: T1, eIF4A (S. cerevisiae); assay: global fit of RNA unwinding time courses to a thermodynamic model; K1/2 of a binding step calculated with the model of Figure 4A; step without RNA, ATP bound to Ded1p and to eIF4A
eIF4A (S. cerevisiae) [8] = molecular target: T1, eIF4A (S. cerevisiae); assay: global fit of RNA unwinding time courses to a thermodynamic model; K1/2 of a binding step calculated with the model of Figure 4A; RNA bound to the target before the step, no ATP
eIF4A (S. cerevisiae) [9] = molecular target: T1, eIF4A (S. cerevisiae); assay: global fit of RNA unwinding time courses to a thermodynamic model; K1/2 of a binding step calculated with the model of Figure 4A; step without RNA, ATP bound to eIF4A
eIF4A (S. cerevisiae) [10] = molecular target: T1, eIF4A (S. cerevisiae); assay: global fit of RNA unwinding time courses to a thermodynamic model; K1/2 of a binding step calculated with the model of Figure 4A; RNA bound to the binder before the step, ATP bound to Ded1p
eIF4A (S. cerevisiae) [11] = molecular target: T1, eIF4A (S. cerevisiae); assay: global fit of RNA unwinding time courses to a thermodynamic model; K1/2 of a binding step calculated with the model of Figure 4A; RNA bound to the binder before the step, ATP bound to Ded1p and to eIF4A
eIF4A (S. cerevisiae) [12] = molecular target: T1, eIF4A (S. cerevisiae); assay: global fit of RNA unwinding time courses to a thermodynamic model; K1/2 of a binding step calculated with the model of Figure 4A; RNA bound to the binder before the step, ATP bound to eIF4A
eIF4A (S. cerevisiae) [13] = molecular target: T1, eIF4A (S. cerevisiae); assay: global fit of RNA unwinding time courses to a thermodynamic model; K1/2 of a binding step calculated with the model of Figure 4A; RNA bound to the target before the step, ATP bound to Ded1p and to eIF4A
Ded1p-eIF4A-eIF4G = molecular target: T2, Ded1p-eIF4A-eIF4G (Saccharomyces cerevisiae, UniProt P06634); assay: global fit of thermodynamic model to RNA unwinding data; type: biochemical; conditions: unwinding reactions, RNA 16 bp with 25 nt 3' overhang; fitted with energy-conservation constraints; RNA-bound complex; some ATP constants given only as limits
T2 construct: gene DED1; His6-Ded1p, His6-eIF4A, GST-S-tag-eIF4G1-His; eIF4G preparation contains eIF4E; with ATP-dependent RNA helicase eIF4A; Eukaryotic initiation factor 4F subunit p150; Eukaryotic translation initiation factor 4E
T2 sequence (P06634 2-604, one chain of several): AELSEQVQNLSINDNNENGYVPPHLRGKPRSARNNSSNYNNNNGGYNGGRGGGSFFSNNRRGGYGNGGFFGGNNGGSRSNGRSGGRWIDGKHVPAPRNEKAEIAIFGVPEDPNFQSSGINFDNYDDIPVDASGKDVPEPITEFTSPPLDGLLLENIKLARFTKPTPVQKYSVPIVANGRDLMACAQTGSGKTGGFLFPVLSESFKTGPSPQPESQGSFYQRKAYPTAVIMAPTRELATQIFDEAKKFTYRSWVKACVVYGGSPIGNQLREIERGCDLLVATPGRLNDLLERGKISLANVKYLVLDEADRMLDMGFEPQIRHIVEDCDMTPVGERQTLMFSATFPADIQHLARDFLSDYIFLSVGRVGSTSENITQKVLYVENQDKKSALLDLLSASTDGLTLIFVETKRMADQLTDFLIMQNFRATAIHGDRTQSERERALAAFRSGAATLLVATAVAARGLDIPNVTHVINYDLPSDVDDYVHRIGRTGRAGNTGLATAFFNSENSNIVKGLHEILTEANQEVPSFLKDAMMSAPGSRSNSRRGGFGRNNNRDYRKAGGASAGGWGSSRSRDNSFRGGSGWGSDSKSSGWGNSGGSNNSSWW
T2 sequence (P39935 whole entry partner, one chain of several): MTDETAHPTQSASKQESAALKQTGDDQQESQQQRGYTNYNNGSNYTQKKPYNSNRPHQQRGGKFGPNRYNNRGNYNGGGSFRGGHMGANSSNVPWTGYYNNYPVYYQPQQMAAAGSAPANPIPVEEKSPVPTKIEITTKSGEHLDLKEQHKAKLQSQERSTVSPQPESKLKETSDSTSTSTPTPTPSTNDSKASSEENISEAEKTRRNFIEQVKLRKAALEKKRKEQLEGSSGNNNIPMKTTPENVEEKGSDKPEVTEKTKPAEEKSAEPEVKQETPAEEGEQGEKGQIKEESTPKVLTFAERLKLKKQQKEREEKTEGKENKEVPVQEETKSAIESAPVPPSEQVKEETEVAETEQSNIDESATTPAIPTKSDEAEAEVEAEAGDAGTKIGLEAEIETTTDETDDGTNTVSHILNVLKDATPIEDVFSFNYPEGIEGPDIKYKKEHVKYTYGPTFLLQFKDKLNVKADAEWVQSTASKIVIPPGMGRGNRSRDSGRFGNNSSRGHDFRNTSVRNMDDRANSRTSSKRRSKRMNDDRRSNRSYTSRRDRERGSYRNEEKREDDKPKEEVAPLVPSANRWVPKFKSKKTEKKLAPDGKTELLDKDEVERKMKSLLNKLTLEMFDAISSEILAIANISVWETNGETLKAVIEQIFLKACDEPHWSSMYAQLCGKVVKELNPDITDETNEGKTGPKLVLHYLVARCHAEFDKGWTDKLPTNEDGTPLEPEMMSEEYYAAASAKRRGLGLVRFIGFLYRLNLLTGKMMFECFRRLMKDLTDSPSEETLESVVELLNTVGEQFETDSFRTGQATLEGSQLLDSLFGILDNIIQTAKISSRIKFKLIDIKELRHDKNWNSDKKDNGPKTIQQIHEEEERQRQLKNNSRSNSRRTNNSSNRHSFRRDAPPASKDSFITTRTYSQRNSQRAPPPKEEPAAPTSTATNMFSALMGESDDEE

[14] = molecular target: Ded1p (wild type, N-terminal His6-tag) (S. cerevisiae) (UniProt P06634); assay: cross-linking; formaldehyde 1% (v/v), 30 min, room temperature; Ded1p 0.3 µM, eIF4A 2 µM or as indicated, RNA 2 µM (16 bp, 25 nt 3'-overhang), 0.5 mM ADPNP-MgCl2, unwinding buffer; Western blot with α-Ded1p

Chain of Ded1p (P06634 whole entry): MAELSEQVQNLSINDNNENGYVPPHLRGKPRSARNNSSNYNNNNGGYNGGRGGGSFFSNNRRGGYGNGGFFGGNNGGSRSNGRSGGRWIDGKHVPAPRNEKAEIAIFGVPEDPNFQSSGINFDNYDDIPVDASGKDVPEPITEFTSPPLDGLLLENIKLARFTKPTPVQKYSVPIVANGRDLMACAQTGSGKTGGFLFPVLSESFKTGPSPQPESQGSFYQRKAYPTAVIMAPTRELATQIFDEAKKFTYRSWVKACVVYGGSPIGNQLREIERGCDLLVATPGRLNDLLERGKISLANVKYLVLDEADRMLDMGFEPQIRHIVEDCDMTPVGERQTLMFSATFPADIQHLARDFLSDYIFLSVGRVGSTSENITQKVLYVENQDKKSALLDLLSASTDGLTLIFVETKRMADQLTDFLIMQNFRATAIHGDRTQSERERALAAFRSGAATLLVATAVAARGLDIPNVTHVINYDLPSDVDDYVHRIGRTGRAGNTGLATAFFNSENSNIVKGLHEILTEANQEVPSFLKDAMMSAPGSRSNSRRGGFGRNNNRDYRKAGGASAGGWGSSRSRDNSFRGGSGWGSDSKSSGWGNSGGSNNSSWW
Chain of Ded1p (wild type, N-terminal His6-tag) (P06634 whole entry): as above
Chain of eIF4G-eIF4E complex (Saccharomyces cerevisiae) (P39935 whole entry, chain 1 of 2): as the sequence (P39935 whole entry partner, one chain of several) above
Chain of eIF4G-eIF4E complex (Saccharomyces cerevisiae) (P07260 whole entry, chain 2 of 2, further chain): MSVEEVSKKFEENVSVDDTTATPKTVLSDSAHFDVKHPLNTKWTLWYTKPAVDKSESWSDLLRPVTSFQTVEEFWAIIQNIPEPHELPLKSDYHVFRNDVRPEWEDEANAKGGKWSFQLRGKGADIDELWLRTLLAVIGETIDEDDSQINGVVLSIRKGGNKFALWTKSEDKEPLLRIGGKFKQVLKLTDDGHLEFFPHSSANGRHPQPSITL

Molecule: eIF4A (from UniProt P10081)
Kd [1]: < 30 nM

Kd (eIF4A (S. cerevisiae) [2]): 89 nM | Kd (eIF4A (S. cerevisiae) [3]): 800 nM | Kd (eIF4A (S. cerevisiae) [4]): 270 nM | Kd (eIF4A (S. cerevisiae) [5]): 800 nM | Kd (eIF4A (S. cerevisiae) [6]): 45 nM | Kd (eIF4A (S. cerevisiae) [7]): 800 nM | Kd (eIF4A (S. cerevisiae) [8]): 45 nM | Kd (eIF4A (S. cerevisiae) [9]): 800 nM | Kd (eIF4A (S. cerevisiae) [10]): 710 nM | Kd (eIF4A (S. cerevisiae) [11]): 710 nM | Kd (eIF4A (S. cerevisiae) [12]): 270 nM | Kd (eIF4A (S. cerevisiae) [13]): 89 nM
Molecule: Ded1p (from UniProt P06634 1-604) (enzyme; other documents disagree on this pair)

Molecule: Nc1ncnc2c1ncn2[C@@H]1O[C@H](COP(=O)(O)OP(=O)(O)OP(=O)(O)O)[C@@H](O)[C@H]1O [ATP]
K1/2 (Ded1p-eIF4A-eIF4G): ATP binding to Ded1p-eIF4G-eIF4A-RNA complex

stoichiometry N [14]: 3
Molecule: Ded1p (wild type, N-terminal His6-tag) (from UniProt P06634 1-604) (enzyme; other documents disagree on this pair)
